Source: patent publication US20230159612A1 (MEDIGENE IMMUNOTHERAPIES, published 2023)

Legend:
[1] = target: T1, MAGE-A4GVY-MHC-multimer (MAGE-A4 230-239, …; immuneAware) (human); experiment: flow cytometry, multimer staining of TCR-transduced CD8+ T cells, gated on live CD8+/mCb+ cells
T1 construct: Bought reagent (immuneAware); also called GVY-specific tetramer
Source text: Transduced CD8+ T cells were enriched by FACS using the murine constant beta region as a marker for transduction. After expansion of these cells, they were stained with an MAGE-A4GVY-MHC-multimer and antibodies against CD8 and the murine constant beta region (mmCb) and analyzed by flow cytometry. Populations were gated on live CD8+/mCb+ cells and staining of multimer/CD8 is shown.
They were stained with a MAGE-A4GVY-MHC-multimer (MAGE-A4²³⁰⁻²³⁹, […]; immuneAware) and antibodies against CD8 and the murine constant beta region. All MAGE-A4-TCR-transgenic T cell populations bound the MAGE-A4GVY-MHC-multimer very efficiently (>70%).

[2] = target: T1, MAGE-A4GVY-MHC-multimer (MAGE-A4 …); experiment: flow cytometry, multimer staining of TCR-transduced CD3+ T cells, gated on live CD3+ cells
Source text: After expansion of these cells, they were stained with a MAGE-A4GVY-MHC-multimer and antibody against CD3 and analyzed by flow cytometry. Populations were gated on live CD3+ cells and multimer staining.
After expansion, the transduced T cells were stained with a MAGE-A4GVY-MHC-multimer (MAGE-A4²³⁰⁻²³⁹, […]; immuneAware) and antibodies against CD3. Populations were gated on live CD3⁺ cells and multimer staining. All MAGE-A4-TCR-transgenic T cell populations bound the MAGE-A4GVY-MHC-multimer very efficiently (>70%).

| Binder | percent of cells stained by the multimer [1] [%] | percent of cells stained by the multimer [2] [%] |
| --- | --- | --- |
| TCR-1 containing murinized Cα and Cβ regions (TCR, Expressed on the surface of retrovirally transduced human CD8+ T cells; Human variable regions with murine constant regions; also called MAGE-A4-TCR) TCR alpha: AQKITQTQPGMFVQEKEAVTLDCTYDTSDQSYGLFWYKQPSSGEMIFLIYQGSYDEQNATEGRYSLNFQKARKSANLVISASQLGDSAMYFCAMSGDSAGNMLTFGGGTRLMVKPHIQNPEPAVYQLKDPRSQDSTLCLFTDFDSQINVPKTMESGTFITDKTVLDMKAMDSKSNGAIAWSNQTSFTCQDIFKETNATYPSSDVPCDATLTEKSFETDMNLNFQNLSVMGLRILLLKVAGFNLLMTLRLWSS TCR beta: not shown | > 70 | – |
| TCR-3 containing murinized Cα and Cβ regions (TCR, Expressed on the surface of retrovirally transduced human CD8+ T cells; Human variable regions with murine constant regions; also called MAGE-A4-TCR) TCR alpha: GENVEQHPSTLSVQEGDSAVIKCTYSDSASNYFPWYKQELGKRPQLIIDIRSNVGEKKDQRIAVTLNKTAKHFSLHITETQPEDSAVYFCAASRGTGFQKLVFGTGTRLLVSPNIQNPEPAVYQLKDPRSQDSTLCLFTDFDSQINVPKTMESGTFITDKTVLDMKAMDSKSNGAIAWSNQTSFTCQDIFKETNATYPSSDVPCDATLTEKSFETDMNLNFQNLSVMGLRILLLKVAGFNLLMTLRLWSS TCR beta: DTAVSQTPKYLVTQMGNDKSIKCEQNLGHDTMYWYKQDSKKFLKIMFSYNNKELIINETVPNRFSPKSPDKAHLNLHINSLELGDSAVYFCASSQFWDGAGDEQYFGPGTRLTVTEDLRNVTPPKVTLFEPSKAEIANKQKATLVCLARGFFPDHVELSWWVNGKEVHSGVSTDPQAYKESNYSYCLSSRLRVSATFWHNPRNHFRCQVQFHGLSEEDKWPEGSPKPVTQNISAEAWGRADCGITSASYHQGVLSATILYEILLGKATLYAVLVSGLVLMAMVKKKNS | > 70 | – |
| MAGE-A4 TCR-6 (fully human TCR) (TCR, no leader limits stated) TCR alpha: GENVEQHPSTLSVQEGDSAVIKCTYSDSASNYFPWYKQELGKRPQLIIDIRSNVGEKKDQRIAVTLNKTAKHFSLHITETQPEDSAVYFCAASRGTGFQKLVFGTGTRLLVSPNIQNPDPAVYQLRDSKSSDKSVCLFTDFDSQTNVSQSKDSDVYITDKTVLDMRSMDFKSNSAVAWSNKSDFACANAFNNSIIPEDTFFPSPESSCDVKLVEKSFETDTNLNFQNLSVIGFRILLLKVAGFNLLMTLRLWSS TCR beta: DTAVSQTPKYLVTQMGNDKSIKCEQNLGHDTMYWYKQDSKKFLKIMFSYNNKELIINETVPNRFSPKSPDKAHLNLHINSLELGDSAVYFCASSQFWDGAGDEQYFGPGTRLTVTEDLNKVFPPEVAVFEPSEAEISHTQKATLVCLATGFFPDHVELSWWVNGKEVHSGVSTDPQPLKEQPALNDSRYCLSSRLRVSATFWQNPRNHFRCQVQFYGLSENDEWTQDRAKPVTQIVSAEAWGRADCGFTSVSYQQGVLSATILYEILLGKATLYAVLVSALVLMAMVKRKD | – | > 70 |
| MAGE-A4 TCR-4 (fully human TCR) (TCR, no leader limits stated) TCR alpha: AQKITQTQPGMFVQEKEAVTLDCTYDTSDQSYGLFWYKQPSSGEMIFLIYQGSYDEQNATEGRYSLNFQKARKSANLVISASQLGDSAMYFCAMSGDSAGNMLTFGGGTRLMVKPHIQNPDPAVYQLRDSKSSDKSVCLFTDFDSQTNVSQSKDSDVYITDKTVLDMRSMDFKSNSAVAWSNKSDFACANAFNNSIIPEDTFFPSPESSCDVKLVEKSFETDTNLNFQNLSVIGFRILLLKVAGFNLLMTLRLWSS TCR beta: not shown | – | > 70 |
| MAGE-A4 TCR-5 (fully human TCR) (TCR, no leader limits stated) TCR alpha: AQKITQTQPGMFVQEKEAVTLDCTYDTSDPSYGLFWYKQPSSGEMIFLIYQGSYDQQNATEGRYSLNFQKARKSANLVISASQLGDSAMYFCAMSGGYTGGFKTIFGAGTRLFVKANIQNPDPAVYQLRDSKSSDKSVCLFTDFDSQTNVSQSKDSDVYITDKTVLDMRSMDFKSNSAVAWSNKSDFACANAFNNSIIPEDTFFPSPESSCDVKLVEKSFETDTNLNFQNLSVIGFRILLLKVAGFNLLMTLRLWSS TCR beta: DSGVTQTPKHLITATGQRVTLRCSPRSGDLSVYWYQQSLDQGLQFLIQYYNGEERAKGNILERFSAQQFPDLHSELNLSSLELGDSALYFCASSGGDGDEQFFGPGTRLTVLEDLKNVFPPEVAVFEPSEAEISHTQKATLVCLATGFYPDHVELSWWVNGKEVHSGVSTDPQPLKEQPALNDSRYCLSSRLRVSATFWQNPRNHFRCQVQFYGLSENDEWTQDRAKPVTQIVSAEAWGRADCGFTSESYQQGVLSATILYEILLGKATLYAVLVSALVLMAMVKRKDSRG | – | > 70 |
| TCR-2 containing murinized Cα and Cβ regions (TCR, Expressed on the surface of retrovirally transduced human CD8+ T cells; Human variable regions with murine constant regions; also called MAGE-A4-TCR) TCR alpha: AQKITQTQPGMFVQEKEAVTLDCTYDTSDPSYGLFWYKQPSSGEMIFLIYQGSYDQQNATEGRYSLNFQKARKSANLVISASQLGDSAMYFCAMSGGYTGGFKTIFGAGTRLFVKANIQNPEPAVYQLKDPRSQDSTLCLFTDFDSQINVPKTMESGTFITDKTVLDMKAMDSKSNGAIAWSNQTSFTCQDIFKETNATYPSSDVPCDATLTEKSFETDMNLNFQNLSVMGLRILLLKVAGFNLLMTLRLWSS TCR beta: DSGVTQTPKHLITATGQRVTLRCSPRSGDLSVYWYQQSLDQGLQFLIQYYNGEERAKGNILERFSAQQFPDLHSELNLSSLELGDSALYFCASSGGDGDEQFFGPGTRLTVLEDLRNVTPPKVTLFEPSKAEIANKQKATLVCLARGFFPDHVELSWWVNGKEVHSGVSTDPQAYKESNYSYCLSSRLRVSATFWHNPRNHFRCQVQFHGLSEEDKWPEGSPKPVTQNISAEAWGRADCGITSASYHQGVLSATILYEILLGKATLYAVLVSGLVLMAMVKKKNS | > 70 | – |
